Source: patent US20240317852A1 (Molecular Partners, published 2024)
Substitutions are numbered along the chain they refer to.

B1: DARPin® protein #11 (engineered variant of DARPin® protein #9) (designed binder)
chain: DLGYKLLWAASAGQDDEVRELLKAGADVNAKDKDGATPLHFAAAKGHLEIVEVLLKAGADVNAKDNRGATPLHYVAAASGHLEIVEVLLKAGADVNAQDEWGNTPADLAAIYGHEDIAEVLQKAA
B2: DARPin® protein #12 (engineered variant of DARPin® protein #9) (designed binder)
chain: B1 chain with Y4V, E115G
B3: DARPin® protein #10 (engineered variant of DARPin® protein #9) (designed binder)
chain: DLGYKLLWAASAGQDDEVRELLKAGADVNAKDKDGATPLHFAAAKGHLEIVEVLLKAGADVNAKDNRGATPLHYAAASGHLEIVEVLLKAGADVNAQDEWGNTPADLAAIYGHGDIAEVLQKAA
B4: DARPin® protein #13 (engineered variant of DARPin® protein #9) (designed binder)
chain: B3 chain with G114E
B5: DARPin® protein #29 in monospecific (single domain) format (designed binder)
chain: MRGSHHHHHHGSDLGVKLLLAAERGQLDEVRILLKAGADVNAKDIAEGYTPLHIAAYQGHLEIVEVLLKAGADVNAKDRYGKTPLHLAAIGGHLEIVEVLLKAGADVNAQDNKGSTPADLAADYGHQDIAEVLQKAA
notes: the same molecule is used here
B6: DARPin® protein #30 in monospecific (single domain) format (designed binder)
chain: B5 chain with V16K, I45R, G91S
notes: as for B5
B7: DARPin® protein #9 in TCE format (formatted with a CD3-specific ankyrin repeat domain) (designed binder)
chain: MRGSHHHHHHGSDLGYKLLWAASAGQDDEVRILLAAGADVNAKDKDGATPLHFAAAKGHLEIVEVLLKAGADVNAKDNRGATPLHYVAAASGHLEIVEVLLKAGADVNAQDEWGNTPADLAAIYGHGDIAEVLQKAA
notes: Crude extract HTRF construct also carried a C-terminal Flag tag; not shown: which one,
B8: DARPin® protein #3 in TCE format (formatted with a CD3-specific ankyrin repeat domain) (designed binder)
chain: MRGSHHHHHHGSDLGVKLLRAAFHGQDDEVRILLAAGADVNAKDTDGETPLHYAAQFGHLEIVEVLLKAGADVNAKDAYGATPLHWAAWHGHLEIVEVLLKAGADVNAQDVSGATPADLAAKVGHEDIAEVLQKAA
notes: as for B7
B9: DARPin® protein #8 in TCE format (formatted with a CD3-specific ankyrin repeat domain) (designed binder)
chain: MRGSHHHHHHGSDLGWKLLSAATLGQDDEVRILLAAGADVNAKDEWGKTPLHWAASTGHLEIVEVLLKAGADVNAKDLWGHTPLHEAAAKGHLEIVEVLLKAGADGNAQDNIGDTPADLAAYQGHEDIAEVLQKAA
notes: as for B7
B10: DARPin® protein #14 in TCE format (formatted with a CD3-specific ankyrin repeat domain) (designed binder)
chain: MRGSHHHHHHGSDLGWKLLNAAIAGQDDEVRILLAAGADVNAKDTEYGWTPLHIAASDGHLEIVEVLLKAGADVNAKDYAGSTPLHAAAFVGHLEIVEVLLKAGADVNAQDHQGQTPADLAAQQGHVDIAEVLQKAA
notes: as for B7
B11: DARPin® protein #15 in TCE format (formatted with a CD3-specific ankyrin repeat domain) (designed binder)
chain: MRGSHHHHHHGSDLGKKLLQAARAGQLDEVRELLKAGADVNAKDLIGWTPLHLAAHYGHLEIVEVLLKAGADVNAKDAQGWTPLHIAAWEGHLEIVEVLLKAGADVNAKDWTGETPLHLAAFEGHLEIVEVLLKAGADVNAQDKSGKTPADLAARAGHQDIAEVLQKAA
notes: as for B7
B12: DARPin® protein #5 in TCE format (formatted with a CD3-specific ankyrin repeat domain) (designed binder)
chain: B11 chain with G15S, L45Q, W48Q, H56Q, Y57S, A78T, Q79E, I86V, F122Y, E123Q
notes: as for B7
B13: DARPin® protein #1 in TCE format (formatted with a CD3-specific ankyrin repeat domain) (designed binder)
chain: MRGSHHHHHHGSDLGWKLLLAASRGQDDEVRILLAAGADVNAKDIDEGYTPLHIAAYYGHLEIVEVLLKAGADVNAKDRYGKTPLHLAAISGHEDIAEVLLKAGADVNAQDDKGDTPADLAADYGHEDIAEVLQKAA
notes: not shown: which one,
B14: DARPin® protein #7 in TCE format (formatted with a CD3-specific ankyrin repeat domain) (designed binder)
chain: MRGSHHHHHHGSDLGLKLLRAAYDGQDDEVRILLAAGADVNAKDWQGFTPLHYAAVLGHLEIVEVLLKAGADVNAKDQEGATPLHLAALHGHLEIVEVLLKAGADVNAQDESGWTPADLAAKWGHEDIAEVLQKAA
notes: as for B7
B15: DARPin® protein #2 in monospecific (single domain) format (designed binder)
chain: B5 chain with E23S, A46D, Q58Y, G91S, N112D, S115D

target: T1, biotinylated human CD33 full-length extracellular domain (residues 18-259) with C-terminal Fc tag and Avi tag (human, UniProt P20138 18-259, biotinylated with BirA-GST (Avi tag)); test: HTRF
T1 construct: Bought from Evitria; also called bio.hCD33; bio.hCD33 full-length target; not shown: C-terminal Fc tag and Avi tag
T1 sequence (P20138 18-259 R69G limits assumed): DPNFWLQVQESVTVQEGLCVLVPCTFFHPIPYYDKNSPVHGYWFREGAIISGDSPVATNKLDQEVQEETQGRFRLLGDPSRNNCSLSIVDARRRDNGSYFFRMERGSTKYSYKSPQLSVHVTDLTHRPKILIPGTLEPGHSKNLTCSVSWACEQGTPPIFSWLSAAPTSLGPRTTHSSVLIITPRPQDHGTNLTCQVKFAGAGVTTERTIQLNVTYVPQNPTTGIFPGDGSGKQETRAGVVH

| binding result | Binder |
| --- | --- |
| binds | B1 |
| binds | B2 |
| binds | B3 |
| binds | B4 |

target: T2, human CD33 expressed on Molm-13 tumor cells (human, UniProt P20138 18-364); test: flow cytometry on MOLM13 cells
T2 construct: whole, on cells; also called CD33 expressed on the surface of cells; CD33-expressing tumor cells (Molm-13 N1)
T2 sequence (P20138 18-364): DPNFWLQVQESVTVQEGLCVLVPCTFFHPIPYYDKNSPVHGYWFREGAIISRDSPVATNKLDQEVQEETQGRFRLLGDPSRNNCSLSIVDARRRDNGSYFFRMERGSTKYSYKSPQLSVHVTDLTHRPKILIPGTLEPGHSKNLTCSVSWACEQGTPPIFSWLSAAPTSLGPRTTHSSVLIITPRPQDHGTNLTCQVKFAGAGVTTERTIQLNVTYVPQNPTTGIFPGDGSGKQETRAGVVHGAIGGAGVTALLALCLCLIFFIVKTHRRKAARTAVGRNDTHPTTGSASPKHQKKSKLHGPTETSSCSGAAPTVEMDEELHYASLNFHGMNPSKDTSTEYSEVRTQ

| binding result | Binder |
| --- | --- |
| binds | B1 |
| binds | B2 |
| binds | B3 |
| binds | B4 |

target: T1, biotinylated human CD33 full-length …; test: SPR (ProteOn), bio.hCD33 full length on NLC chip, DARPin at 100 nM, 1:1 Langmuir fit
Method: Moreover, the binding affinities of two additional purified ankyrin repeat proteins on recombinant human CD33 target were measured and analyzed with a similar procedure as described above for DARPin proteins #1, #3, #6, #7-#9 and #14-#16. Briefly, bio.hCD33 was coaled on NLC chip (BioRad) to a level of 1180 RU. DARPin® protein #29 and DARPin® protein #30 were applied as analyte at a single concentration of 100 nM with a 120 s association and 1200 s dissociation phase at a constant flow of 100 ul/min. The target was regenerated with 4M MgCl2. The signals were double referenced against the running buffer (PBST-PBS pH 7.4 containing 0.005% Tween 200) treated control lane of L1 and A6. The 1:1 Langmuir model was used for the fitting.

| Kd | Binder |
| --- | --- |
| 0.62 nM | B5 |
| 0.88 nM | B6 |

target: T1, biotinylated human CD33 full-length …; test: SPR (ProteOn XPR36), biotinylated full-length CD33 ECD on NLC chip, DARPin at 50 nM, single trace
Method: Briefly, SPR measurements were performed using a ProteOn XPR36 instrument (BioRad). The running buffer was PBS pH 7.4 containing 0.005% Tween 20® (PBST). The bio.hCD33 full-length target (SEQ ID NO: 60) was immobilized on NLC chips (BioRad) to a level of 540 RU and the spliced variant (SEQ ID NO: 61) to a level of 560RU. The interaction of the 96 well purified CD33-specific binding proteins in TCE format to the full-length and the spliced variant of CD33 ECD were measured by injecting the binding protein at 50 nM with an association of 120s and dissociation of 1200s using a constant flow of […]. The target was regenerated between the individual measurements using 2M MgCl₂. The signals were double referenced against the running buffer (PBST) treated control lane.
Dissociation constants (KD) were calculated from the estimated on- and off-rates using standard procedures known to the person skilled in the art. […] The values in Table 2a are averages of multiple replicates.

| Binder | Kd |
| --- | --- |
| B7 | 0.76 nM |
| B8 | 7.4 nM |
| B9 | 2.3 nM |
| B10 | 0.64 nM |
| B11 | 17 nM |
| B12 | 12 nM |
| B13 | 4.8 nM |
| B14 | 0.47 nM |

target: T2, human CD33 expressed on Molm-13 tumor …; test: flow cytometry on CD33-expressing Molm-13 N1 cells, anti-DARPin antibody detection
Method: Binding of binding proteins of the invention to CD33 expressed on the surface of cells was analyzed by fluorescence activated cell sorting (FACS) flow cytometry. For this purpose. CD33-expressing tumor cells (Molm-13 N1) were seeded at 100,000 cells per well in a 96 well plate. DARPin® protein #2, DARPin protein #29, and DARPin® protein #30, in monospecific format, were titrated down In 1:5 dilution ratio starting at 2000 nM. Tumor cells were resuspended with diluted DARPin proteins and incubated for 60 minutes at 4° C. The assay was performed in PBS Including 2% fetal bovine serum without human serum albumin (HSA). After washing twice with Phosphate Buffer saline (PBS), DARPin® protein specific tumor call binding was detected by adding unlabeled primary […] (anti-rabbit 1-1-1 antibody, CePower) at 2 μg/ml. An incubation step of at least 30 minutes at 4° C. followed. Afterwards, cells were washed with PBS and a secondary goat anti-rabbit antibody labelled with Alexa Fluor 488 antibody (ThermoFisher) at 2 ug/ml was added. The same incubation conditions applied. Finally, the cells were washed twice and resuspended in Cytofix fixation buffer (BD Biosciences) for 15 min at room temperature (RT).

| EC50 | Binder |
| --- | --- |
| 0.32 nM | B5 |
| 1.2 nM | B15 |
| 1.9 nM | B6 |
